Values joined by “and” are separate entries in the source; they are usually repeats but may differ in a detail not shown here. Equal values may be shown once.
Molecular target: the molecule itself
Experiment: mass photometry

B1: murine PARP2 (poly(ADP-ribose) polymerase 2) (enzyme)
chain: MAPRRQRSGSGRRVLNEAKKVDNGNKATEDDSPPGKKMRTCQRKGPMAGGKDADRTKDNRDSVKTLLLKGKAPVDPECAAKLGKAHVYCEGDDVYDVMLNQTNLQFNNNKYYLIQLLEDDAQRNFSVWMRWGRVGKTGQHSLVTCSGDLNKAKEIFQKKFLDKTKNNWEDRENFEKVPGKYDMLQMDYAASTQDESKTKEEETLKPESQLDLRVQELLKLICNVQTMEEMMIEMKYDTKRAPLGKLTVAQIKAGYQSLKKIEDCIRAGQHGRALVEACNEFYTRIPHDFGLSIPPVIRTEKELSDKVKLLEALGDIEIALKLVKSERQGLEHPLDQHYRNLHCALRPLDHESNEFKVISQYLQSTHAPTHKDYTMTLLDVFEVEKEGEKEAFREDLPNRMLLWHGSRLSNWVGILSHGLRVAPPEAPITGYMFGKGIYFADMSSKSANYCFASRLKNTGLLLLSEVALGQCNELLEANPKAQGLLRGKHSTKGMGKMAPSPAHFITLNGSTVPLGPASDTGILNPEGYTLNYNEFIVYSPNQVRMRYLLKIQFNFLQLW
stoichiometry N: 2 and 3

Source: article PMC12412786 (Nucleic Acids Research, 2025)
